According to US20260132182A1 (published 2026):
Starred links: 1 amine or outer side, 2 acyl side, 3 side chain; linkers in the order of their positions; H or OH if unused. Non-standard residues stand in square brackets, D forms with d. Groups on a side chain read outwards from the residue. *: point of attachment. C20 diacid = O=C(O)CCCCCCCCCCCCCCCCCCC(=O)*; C18 diacid = O=C(O)CCCCCCCCCCCCCCCCC(=O)*; C16 diacid = O=C(O)CCCCCCCCCCCCCCC(=O)*; γGlu = O=C(O)[C@H](CCC(=O)[*:2])N[*:1]; C14 diacid = O=C(O)CCCCCCCCCCCCC(=O)*; Desaminohistidyl = O=C(CCc1c[nH]cn1)*; εLys = N[C@@H](CCCCN[*:1])C(=O)[*:2]; Trx = NC[C@H]1CC[C@H](C(=O)O)CC1; AEEA = NCCOCCOCC(=O)O; Aib = CC(C)(N)C(=O)O

T1: human amylin-3 (a) receptor (human, UniProt P30988 25-474; O60896 24-148)
T1 sequence (looked up) 1: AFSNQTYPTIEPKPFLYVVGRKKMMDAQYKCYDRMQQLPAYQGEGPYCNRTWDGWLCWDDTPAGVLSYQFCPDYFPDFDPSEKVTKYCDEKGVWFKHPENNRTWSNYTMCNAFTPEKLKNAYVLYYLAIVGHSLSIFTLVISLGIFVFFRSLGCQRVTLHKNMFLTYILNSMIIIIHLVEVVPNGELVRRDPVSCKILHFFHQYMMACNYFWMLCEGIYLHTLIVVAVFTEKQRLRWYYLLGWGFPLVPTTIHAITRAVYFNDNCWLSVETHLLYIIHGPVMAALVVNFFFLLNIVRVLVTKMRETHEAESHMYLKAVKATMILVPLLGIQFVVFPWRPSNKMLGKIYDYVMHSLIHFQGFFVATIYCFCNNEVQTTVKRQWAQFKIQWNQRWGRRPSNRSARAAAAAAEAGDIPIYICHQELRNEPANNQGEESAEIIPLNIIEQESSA
T1 sequence (looked up) 2: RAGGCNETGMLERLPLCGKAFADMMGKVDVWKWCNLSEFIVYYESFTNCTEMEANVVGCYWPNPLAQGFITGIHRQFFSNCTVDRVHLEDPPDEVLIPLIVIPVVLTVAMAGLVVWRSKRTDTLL


How the values were obtained:
human GLP-1 receptor = human GLP-1 receptor (human, UniProt P43220 24-463); experiment: cell-based or functional assay
[1] = molecular target: T1, human amylin-3 (a) receptor; experiment: cell-based or functional assay

Binder	Human GLP-1R potency [EC50 (pM)] (human GLP-1 receptor) [pM]	Human AmyR3 potency [EC50 (pM)] [1] [pM]
Compound 0502 (peptide) peptide: H[Aib]EGTFTSDVSSYLEEQAAREFIAWLVRGRK([AEEA-AEEA-γGlu-C20 diacid])GGGGEASELSTAALGRLSAELHELATLPRTETGSGSP-NH2	8.4	9
Compound 0437 (peptide) peptide: HWEGTFTSDVSSYLEEQAARK([εLys-AEEA-AEEA-γGlu-Trx-C20 diacid])FIEWLVRGRGEASELSTAALGRLSAELHELATLPRTETGSGSP-NH2	12	11.8
Compound 0414 (peptide) peptide: HAEGTFTSDVSSYLEEK([AEEA-AEEA-γGlu-Trx-C20 diacid])AAREFIEWLVRGRGEASELSTAALGRLSAELHELATLPRTETGSGSP-NH2	11.2	17.7
Compound 0431 (peptide) peptide: HAEGTFTSDK([AEEA-AEEA-γGlu-Trx-C20 diacid])SSYLEEQAAREFIEWLVRGRGEASELSTAALGRLSAELHELATLPRTETGSGSP-NH2	10.9	11.9
Compound 0475 (peptide) peptide: HAEGTFTSDK([AEEA-AEEA-γGlu-C16 diacid])SSYLEEK([AEEA-AEEA-γGlu-C16 diacid])AAREFIEWLVRGRGEASELSTAALGRLSAELHELATLPRTETGSGSP-NH2	70.4	66.8
Compound 0416 (peptide) peptide: HAEGTFTSK([AEEA-AEEA-γGlu-Trx-C20 diacid])VSSYLEEQAAREFIEWLVRGRGEASELSTAALGRLSAELHELATLPRTETGSGSP-NH2	105	18.3
Compound 0506 (not fully specified (residue 31)) peptide: H[Aib]EGTFTSDVSSYLEEQAAREFIAWLVRGRKGGGGEASELSTAALGRLSAELHELATLPRTETGSGSP-NH2	5.8	9.8
Compound 0436 (not fully specified (residue 20)) peptide: H[Aib]EGTFTSDVSSYLEEQAAKEFIEWLVRGRGEASELSTAALGRLSAELHELATLPRTETGSGSP-NH2	15.2	12.3
Compound 0434 (peptide) peptide: HWEGTFTSDVSSYLEEK([εLys-AEEA-AEEA-γGlu-Trx-C20 diacid])AAREFIEWLVRGRGEASELSTAALGRLSAELHELATLPRTETGSGSP-NH2	11.8	13.9
Compound 0438 (not fully specified (residue 31)) peptide: H[Aib]EGTFTSDVSSYLEEQAAREFIEWLVRGRKEASELSTAALGRLSAELHELATLPRTETGSGSP-NH2	11.8	27.5
Compound 0474 (peptide) peptide: HAEGTFTSDVSSYLEEK([AEEA-AEEA-γGlu-C20 diacid])AAREFIEWLVRGRGEASELSTAALGRLSAELHELATLPRTETGSGSP-NH2	2.9	21.8
Compound 0504 (peptide) peptide: H[Aib]EGTFTSDVSSYLEEQAAREFIAWLVRGRPK([AEEA-AEEA-γGlu-Trx-C20 diacid])GGGGEASELSTAALGRLSAELHELATLPRTETGSGSP-NH2	8.3	6
Compound 0435 (peptide) peptide: HWEGTFTSDVSSYLEEQAAK([εLys-AEEA-AEEA-γGlu-Trx-C20 diacid])EFIEWLVRGRGEASELSTAALGRLSAELHELATLPRTETGSGSP-NH2	92.4	22.3
Compound 0482 (peptide) peptide: HAEGTFTSDVSK([AEEA-AEEA-γGlu-C16 diacid])YLEEQAVREFIAK([AEEA-AEEA-γGlu-C16 diacid])LVRGRGGGEASELSTAALGRLSAELHELATLPRTETGSGSP-NH2	36.5	31.8
Compound 0483 (peptide) peptide: H[Aib]EGTFTSDVSK([AEEA-AEEA-γGlu-C16 diacid])YLEEQAVREFIAK([AEEA-AEEA-γGlu-C16 diacid])LVRGRGGGEASELSTAALGRLSAELHELATLPRTETGSGSP-NH2	33.7	36.8
Compound 0509 (peptide) peptide: H[Aib]EGTFTSDVSSYLEEQAARK([AEEA-AEEA-γGlu-C16 diacid])FIAWLVRGRGGGGGEASELSTAALGRLSAELHK([AEEA-AEEA-γGlu-C16 diacid])LATLPRTETGSGSP-NH2	7.1	29.9
Compound 0433 (peptide) peptide: HWEGTFTSDK([εLys-AEEA-AEEA-γGlu-Trx-C20 diacid])SSYLEEQAAREFIEWLVRGRGEASELSTAALGRLSAELHELATLPRTETGSGSP-NH2	30.7	12.9
Compound 0503 (peptide) peptide: H[Aib]EGTFTSDVSSYLEEQAAREFIEWLVRGRK([AEEA-AEEA-γGlu-Trx-C20 diacid])GGGGEASELSTAALGRLSAELHELATLPRTETGSGSP-NH2	6.5	7.7
Compound 0052 (peptide) peptide: H[Aib]EGTFTSDVSSYLEGQAAK([AEEA-AEEA-γGlu-C18 diacid])EFIAWLVRGRGGGGGGGGGEASELSTAALGRLSAELHELATLPRTETGSGSP-NH2	17	19.4
Compound 0045 (peptide) peptide: H[Aib]EGTFTSDVSSYLEGQAAKEFIAWLVRGRK([εLys-AEEA-AEEA-γGlu-C18 diacid])GGEASELSTAALGRLSAELHELATLPRTETGSGSP-NH2	19.4	25.9
Compound 0440 (peptide) peptide: H[Aib]EGTFTSDK([AEEA-AEEA-γGlu-Trx-C20 diacid])SSYLEEQAAREFIEWLVRGRGEASELSTAALGRLSAELHELATLPRTETGSGSP-NH2	5.7	10.4
Compound 0415 (peptide) peptide: H[Aib]EGTFTSDVSSYLEEK([AEEA-AEEA-γGlu-Trx-C20 diacid])AAREFIEWLVRGRGEASELSTAALGRLSAELHELATLPRTETGSGSP-NH2	10.3	16.1
Compound 0417 (peptide) peptide: H[Aib]EGTFTSK([AEEA-AEEA-γGlu-Trx-C20 diacid])VSSYLEEQAAREFIEWLVRGRGEASELSTAALGRLSAELHELATLPRTETGSGSP-NH2	97.8	21
Compound 0484 (peptide) peptide: H[Aib]EGTFTSDVSK([AEEA-AEEA-γGlu-C14 diacid])YLEEQAVREFIAK([AEEA-AEEA-γGlu-C14 diacid])LVRGRGGGEASELSTAALGRLSAELHELATLPRTETGSGSP-NH2	72.8	32.5
Compound 0051 (peptide) peptide: [Desaminohistidyl]AEGTFTSDVSSYLEEQAAREFIAWLVRGRK([AEEA-AEEA-γGlu-C18 diacid])EASELSTAALGRLSAELHELATLPRTETGSGSP-NH2	14.3	19.5
Compound 0439 (not fully specified (residue 21)) peptide: H[Aib]EGTFTSDVSSYLEEQAARKFIEWLVRGRGEASELSTAALGRLSAELHELATLPRTETGSGSP-NH2	8.3	10.7
Compound 0473 (peptide) peptide: HWEGTFTSDVSSYLEEK([AEEA-AEEA-γGlu-C20 diacid])AAREFIEWLVRGRGEASELSTAALGRLSAELHELATLPRTETGSGSP-NH2	3.1	16.2
Compound 0472 (peptide) peptide: HAEGTFTSDVSSYLEEK([AEEA-AEEA-γGlu-C18 diacid])AAREFIEWLVRGRGEASELSTAALGRLSAELHELATLPRTETGSGSP-NH2	2.8	24
